Tests used:
[1] = target: T1, IRISIN protein (human recombinant IRISIN) (human, UniProt Q8NAU1 1-191); assay: BLI
T1 chain: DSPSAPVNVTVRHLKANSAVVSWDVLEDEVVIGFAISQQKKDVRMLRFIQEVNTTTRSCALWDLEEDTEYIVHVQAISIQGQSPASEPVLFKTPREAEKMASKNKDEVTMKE

[2] = target: T1, IRISIN protein (human recombinant …); assay: BLI

Kd [1]: 32.2 nM
koff [2]: 0.00384 s⁻¹
B1: TRPC3 protein (provided by Chen Lei Laboratory, Peking University) (natural protein)
chain: MEGSPSLRRMTVMREKGRRQAVRGPAFMFNDRGTSLTAEEERFLDAAEYGNIPVVRKMLEESKTLNVNCVDYMGQNALQLAVGNEHLEVTELLLKKENLARIGDALLLAISKGYVRIVEAILNHPGFAASKRLTLSPCEQELQDDDFYAYDEDGTRFSPDITPIILAAHCQKYEVVHMLLMKGARIERPHDYFCKCGDCMEKQRHDSFSHSRSRINAYKGLASPAYLSLSSEDPVLTALELSNELAKLANIEKEFKNDYRKLSMQCKDFVVGVLDLCRDSEEVEAILNGDLESAEPLEVHRHKASLSRVKLAIKYEVKKFVAHPNCQQQLLTIWYENLSGLREQTIAIKCLVVLVVALGLPFLAIGYWIAPCSRLGKILRSPFMKFVAHAASFIIFLGLLVFNASDRFEGITTLPNITVTDYPKQIFRVKTTQFTWTEMLIMVWVLGMMWSECKELWLEGPREYILQLWNVLDFGMLSIFIAAFTARFLAFLQATKAQQYVDSYVQESDLSEVTLPPEIQYFTYARDKWLPSDPQIISEGLYAIAVVLSFSRIAYILPANESFGPLQISLGRTVKDIFKFMVLFIMVFFAFMIGMFILYSYYLGAKVNAAFTTVEESFKTLFWSIFGLSEVTSVVLKYDHKFIENIGYVLYGIYNVTMVVVLLNMLIAMINSSYQEIEDDSDVEWKFARSKLWLSYFDDGKTLPPPFSLVPSPKSFVYFIMRIVNFPKCRRRRLQKDIEMGMGNSKSRLNLFTQSNSRVFESHSFNSILNQPTRYQQIMKRLIKRYVLKAQVDKENDEVNEGELKEIKQDISSLRYELLEDKSQATEELAILIHKLSEKLNPSMLRCE
